B1: TCR of SEQ ID NOs 343 and 344 (TCR, V domains shown)
Valpha: QKEVEQNSGPLSVPEGAIASLNCTYSDRGSQSFFWYRQYSGKSPELIMFIYSNGDKEDGRFTAQLNKASQYVSLLIRDSQPSDSATYLCAVGGAGGYQKVTFGTGTKLQVIP
Vbeta: NAGVTQTPKFQVLKTGQSMTLQCAQDMNHEYMSWYRQDPGMGLRLIHYSVGAGITDQGEVPNGYNVSRSTTEDFPLRLLSAAPSQTSVYFCASSYSGNEQYFGPGTRLTVT
B2: TCR of SEQ ID NOs 341 and 342 (TCR, V domains shown)
Valpha: QKEVEQNSGPLSVPEGAIASLNCTYSDRGSQSFFWYRQYSGKSPELIMFIYSNGDKEDGRFTAQLNKASQYVSLLIRDSQPSDSATYLCAVGTSYDKVIFGPGTSLSVIP
Vbeta: NAGVTQTPKFQVLKTGQSMTLQCAQDMNHEYMSWYRQDPGMGLRLIHYSVGAGITDQGEVPNGYNVSRSTTEDFPLRLLSAAPSQTSVYFCASSYGGGSGYTFGSGTRLTVV
B3: TCR of SEQ ID NOs 345 and 346 (TCR, V domains shown)
Valpha: KQEVTQIPAALSVPEGENLVLNCSFTDSAIYNLQWFRQDPGKGLTSLLLIQSSQREQTSGRLNASLDKSSGRSTLYIAASQPGDSATYLCAVRGYQKVTFGTGTKLQVIP
Vbeta: NAGVTQTPKFQVLKTGQSMTLQCAQDMNHNSMYWYRQDPGMGLRLIYYSASEGTTDKGEVPNGYNVSRLNKREFSLRLESAAPSQTSVYFCASSEASGLRSPLHFGNGTRLTVT
B4: TCR of SEQ ID NOs 311 and 312 (TCR, V domains shown)
Valpha: KQEVTQIPAALSVPEGENLVLNCSFTDSAIYNLQWFRQDPGKGLTSLLLIQSSQREQTSGRLNASLDKSSGRSTLYIAASQPGDSATYLCAVTGGTSYGKLTFGQGTILTVHP
Vbeta: NAGVTQTPKFRILKIGQSMTLQCTQDMNHNYMYWYRQDPGMGLKLIYYSVGAGITDKGEVPNGYNVSRSTTEDFPLRLELAAPSQTSVYFCASSYWAGVLTEAFFGQGTRLTVV
B5: TCR of SEQ ID NOs 315 and 316 (TCR, V domains shown)
Valpha: KQEVTQIPAALSVPEGENLVLNCSFTDSAIYNLQWFRQDPGKGLTSLLLIQSSQREQTSGRLNASLDKSSGRSTLYIAASQPGDSATYLCAVSPRSNDYKLSFGAGTTVTVRA
Vbeta: NAGVTQTPKFRILKIGQSMTLQCTQDMNHNYMYWYRQDPGMGLKLIYYSVGAGTTDKGEVPNGYNVSRLNKREFSLRLESAAPSQTSVYFCASSATRRGDYGYTFGSGTRLTVV
B6: TCR of SEQ ID NOs 313 and 314 (TCR, V domains shown)
Valpha: KQEVTQIPAALSVPEGENLVLNCSFTDSAIYNLQWFRQDPGKGLTSLLLIQSSQREQTSGRLNASLDKSSGRSTLYIAASQPGDSATYLCAVSNYGGSQGNLIFGKGTKLSVKP
Vbeta: NAGVTQTPKFRVLKTGQSMTLLCAQDMNHEYMYWYRQDPGMGLRLIHYSVGEGTTAKGEVPDGYNVSRLKKQNFLLGLESAAPSQTSVYFCASTHWGRDSPLHFGNGTRLTVT
B7: TCR of SEQ ID NOs 337 and 338 (TCR, V domains shown)
Valpha: KQEVTQIPAALSVPEGENLVLNCSFTDSAIYNLQWFRQDPGKGLTSLLLIQSSQREQTSGRLNASLDKSSGRSTLYIAASQPGDSATYLCAVRHNQGGKLIFGQGTELSVKP
Vbeta: NAGVTQTPKFRVLKTGQSMTLLCAQDMNHEYMYWYRQDPGMGLRLIHYSVGAGITDQGEVPNGYNVSRLNKREFSLRLESAAPSQTSVYFCASSDRGVYEQYFGPGTRLTVT
B8: TCR of SEQ ID NOs 339 and 340 (TCR, V domains shown)
Valpha: KQEVTQIPAALSVPEGENLVLNCSFTDSAIYNLQWFRQDPGKGLTSLLLIQSSQREQTSGRLNASLDKSSGRSTLYIAASQPGDSATYLCAVRPLGGGYQKVTFGTGTKLQVIP
Vbeta: NAGVTQTPKFRVLKTGQSMTLQCAQDMNHNSMYWYRQDPGMGLRLIYYSASEGTTDKGEVPNGYNVSRLNKREFSLRLESAAPSQTSVYFCASSDTGTSVTGELFFGEGSRLTVL
B9: TCR of SEQ ID NOs 335 and 336 (TCR, V domains shown)
Valpha: KQEVTQIPAALSVPEGENLVLNCSFTDSAIYNLQWFRQDPGKGLTSLLLIQSSQREQTSGRLNASLDKSSGRSTLYIAASQPGDSATYLCAVRHLSNDYKLSFGAGTTVTVRA
Vbeta: NAGVTQTPKFQVLKTGQSMTLQCAQDMNHEYMSWYRQDPGMGLRLIHYSVGAGITDQGEVPNGYNVSRSTTEDFPLRLLSAAPSQTSVYFCASKRGFDEGSPLHFGNGTRLTVT
B10: TCR of SEQ ID NOs 331 and 332 (TCR, V domains shown)
Valpha: KQEVTQIPAALSVPEGENLVLNCSFTDSAIYNLQWFRQDPGKGLTSLLLIQSSQREQTSGRLNASLDKSSGRSTLYIAASQPGDSATYLCAAKAAGNKLTFGGGTRVLVKP
Vbeta: NAGVTQTPKFQVLKTGQSMTLQCAQDMNHNSMYWYRQDPGMGLRLIYYSASEGTTDKGEVPNGYNVSRLNKREFSLRLESAAPSQTSVYFCASSESLGVTGTAFFGQGTRLTVV
B11: TCR of SEQ ID NOs 333 and 334 (TCR, V domains shown)
Valpha: KQEVTQIPAALSVPEGENLVLNCSFTDSAIYNLQWFRQDPGKGLTSLLLIQSSQREQTSGRLNASLDKSSGRSTLYIAASQPGDSATYLCAVKKDAGNKLTFGGGTRVLVKP
Vbeta: NAGVTQTPKFQVLKTGQSMTLQCAQDMNHNSMYWYRQDPGMGLRLIYYSASEGTTDKGEVPNGYNVSRLNKREFPLRLLSAAPSQTSVYFCASSRRLGASSEAFFGQGTRLTVV
B12: TCR of SEQ ID NOs 329 and 330 (TCR, V domains shown)
Valpha: KQEVTQIPAALSVPEGENLVLNCSFTDSAIYNLQWFRQDPGKGLTSLLLIQSSQREQTSGRLNASLDKSSGRSTLYIAASQPGDSATYLCAVQGYGTALIFGKGTTLSVSS
Vbeta: NAGVTQTPKFQVLKTGQSMTLQCAQDMNHEYMSWYRQDPGMGLRLIHYSVGAGITDQGEVPNGYNVSRSTTEDFPLRLLSAAPSQTSVYFCASSQGPYMNTEAFFGQGTRLTVV
B13: TCR of SEQ ID NOs 325 and 326 (TCR, V domains shown)
Valpha: QKEVEQNSGPLSVPEGAIASLNCTYSDRGSQSFFWYRQYSGKSPELIMFIYSNGDKEDGRFTAQLNKASQYVSLLIRDSQPSDSATYLCAVRTPSGSARQLTFGSGTQLTVLP
Vbeta: DAGVTQSPTHLIKTRGQHVTLRCSPKSGHDTVSWYQQALGQGPQFIFQYYGEEERQRGNFPDRFSGHQFPNYSSELNVNALLLGDSALYLCASSLGAGGGHSGNTIYFGEGSWLTVV
B14: TCR of SEQ ID NOs 323 and 324 (TCR, V domains shown)
Valpha: KQEVTQIPAALSVPEGENLVLNCSFTDSAIYNFQWFRQDPGKGLTSLLLIQSSQREQTSGRLNASLDKSSGRSTLYIAASQPGDSATYLCAAHPATGANSKLTFGKGITLSVRP
Vbeta: NAGVTQTPKFQVLKTGQGMTLQCAQDMNHNSMYWYRQDPGMGLRLIYYSASEGTTDKGEVPNGYNVSRLNKREFSLRLESAAPSQTSVYFCASSEASGSNSPLHFGNGTRLTVT
B15: TCR of SEQ ID NOs 327 and 328 (TCR, V domains shown)
Valpha: GNSVTQMEGPVTLSEEAFLTINCTYTATGYPSLFWYVQYPGEGLQLLLKATKADDKGSNKGFEATYRKETTSFHLEKGSVQVSDSAVYFCAPHTDKLIFGTGTRLQVFP
Vbeta: DSGVTQTPKHLITATGQRVTLRCSPRSGDLSVYWYQQSLDQGLQFLIQYYNGEERAKGNILERFSAQQFPDLHSELNLSSLELGDSALYFCASSGGTGDGYTFGSGTRLTVV

Target: T1, CT45A1 peptide on HLA (human)
T1 peptide: SLIAGSAMSKA
Test: binding, other

Binding result, recognises:
B1
B2
B3

Target: T2, BRDT peptide on HLA (human)
T2 peptide: EMFPKFTEV
Test: binding, other

Binding result, recognises:
B4
B5
B6

Target: T3, CLDN6 peptide on HLA (human)
T3 peptide: VLTSGIVFV
Test: binding, other

Binding result, recognises:
B7
B8
B9

Target: T4, CLDN6 peptide on HLA (human)
T4 peptide: TLIPVCWTA
Test: binding, other

Binding result, recognises:
B10
B11
B12

Target: T5, CALHM3 peptide on HLA (human)
T5 peptide: ALLDGKCFV
Test: binding, other

Binding result, recognises:
B13
B14
B15

Reference: patent US20230346885A1 (published 2023)
